Experimental data taken from US11898181B2, “Genetically modified isopropylmalate isomerase enzyme complexes and processes to prepare elongated 2-ketoacids and C5-C10 compounds therewith” (Dow Global Technologies LLC, priority 2017, dated 2022).

Experiments:
Assay in all cases: Kinetic analysis of LeuCD (LeuB-coupled HTP assay), Variant 3 (wild type)
Format in all cases: biochemical, E. coli
[1] = substrate: CCCCCCC(O)(CC(=O)O)C(=O)O; details: other: 2-HM 0-1.6 mM, pH 8, room temperature, 30 min
[2] = substrate: CCCCC(O)(CC(=O)O)C(=O)O; details: other: 2-BM 0-5 mM, pH 8, room temperature, 30 min
[3] = substrate: CC(C)[C@@](O)(CC(=O)O)C(=O)O; details: other: 2-IPM 0-0.625 mM, pH 8, room temperature, 30 min

B1: E. coli isopropylmalate isomerase LeuCD complex, wild type (Variant 3: Wt LeuC, SEQ ID NO: 1 + Wt LeuD, SEQ ID NO: 2) (Escherichia coli K-12) (protein)
chain 1: MGSSHHHHHHSSGMAKTLYEKLFDAHVVYEAENETPLLYIDRHLVHEVTSPQAFDGLRAHGRPVRQPGKTFATMDHNVSTQTKDINACGEMARIQMQELIKNCKEFGVELYDLNHPYQGIVHVMGPEQGVTLPGMTIVCGDSHTATHGAFGALAFGIGTSEVEHVLATQTLKQGRAKTMKIEVQGKAAPGITAKDIVLAIIGKTGSAGGTGHVVEFCGEAIRDLSMEGRMTLCNMAIEMGAKAGLVAPDETTFNYVKGRLHAPKGKDFDDAVAYWKTLQTDEGATFDTVVTLQAEEISPQVTWGTNPGQVISVNDNIPDPASFADPVERASAEKALAYMGLKPGIPLTEVAIDKVFIGSCTNSRIEDLRAAAEIAKGRKVAPGVQALVVPGSGPVKAQAEAEGLDKIFIEAGFEWRLPGCSMCLAMNNDRLNPGERCASTSNRNFEGRQGRGGRTHLVSPAMAAAAAVTGHFADIRNIK
chain 2: MAEKFIKHTGLVVPLDAANVDTDAIIPKQFLQKVTRTGFGAHLFNDWRFLDEKGQQPNPDFVLNFPQYQGASILLARENFGCGSSREHAPWALTDYGFKVVIAPSFADIFYGNSFNNQLLPVKLSDAEVDELFALVKANPGIHFDVDLEAQEVKAGEKTYRFTIDAFRRHCMMNGLDSIGLTLQHDDAIAAYEAKQPAFMN
notes: expression of a His-tagged LeuC having 13 additional amino acids on the N-terminus; made in house; host or cells: E. coli BL21(DE3), whole cell lysate
kcat/Km [1]: 1.1 ± 0.28 M⁻¹ s⁻¹
Km [2]: 1330 ± 140 µM
kcat [2]: 1.7 ± 0.0897 s⁻¹
kcat/Km [2]: 1291 ± 154 M⁻¹ s⁻¹
Km [3]: 68 ± 10 µM
kcat [3]: 0.4239 ± 0.0161 s⁻¹
kcat/Km [3]: 6212.8 ± 659.7 M⁻¹ s⁻¹
